The target of experiment [1] is human CD28 on PHA-activated T cells of PBMC (human) (UniProt P10747). The experiment can be described thus: cell-based or functional assay.
Experiment [2] has as its target T1, mouse PDL1 co-expressed with mouse CD80 on CD80-transfected 4T1 cells (4T1/CD80) (mouse, UniProt Q9EP73 19-290; Q00609 38-306).
T1 construct: whole, on cells; also called PDL1 on 4T1/CD80 cells; PDL1+CD80+ 4T1/CD80 cells
The experiment can be described thus: flow cytometry on IFN-gamma-treated cells, sPD1-Fc detected with anti-PD1-APC. For orientation: A flow cytometer gives signals particle by particle.

This note sets out measurements from patent US20130149305A1 (UNIVERSITY OF MARYLAND BALTIMORE COUNTY, published 2013).

Sequence of human CD28 on PHA-activated T cells of PBMC (human) (P10747 19-220): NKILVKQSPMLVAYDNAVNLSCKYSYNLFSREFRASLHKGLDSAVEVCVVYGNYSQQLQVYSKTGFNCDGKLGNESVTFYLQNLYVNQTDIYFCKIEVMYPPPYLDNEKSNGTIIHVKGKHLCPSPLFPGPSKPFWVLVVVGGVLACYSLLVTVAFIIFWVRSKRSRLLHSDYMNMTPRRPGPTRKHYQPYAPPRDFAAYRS
T1 sequence (Q9EP73 19-290, chain 1 of 2): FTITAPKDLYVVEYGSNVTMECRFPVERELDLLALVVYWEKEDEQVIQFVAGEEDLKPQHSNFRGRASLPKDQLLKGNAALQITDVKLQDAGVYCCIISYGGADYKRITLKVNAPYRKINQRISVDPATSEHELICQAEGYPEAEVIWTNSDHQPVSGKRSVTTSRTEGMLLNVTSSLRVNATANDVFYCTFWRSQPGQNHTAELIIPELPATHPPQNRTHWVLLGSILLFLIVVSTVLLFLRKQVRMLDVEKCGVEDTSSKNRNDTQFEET
T1 sequence (Q00609 38-306, chain 2 of 2): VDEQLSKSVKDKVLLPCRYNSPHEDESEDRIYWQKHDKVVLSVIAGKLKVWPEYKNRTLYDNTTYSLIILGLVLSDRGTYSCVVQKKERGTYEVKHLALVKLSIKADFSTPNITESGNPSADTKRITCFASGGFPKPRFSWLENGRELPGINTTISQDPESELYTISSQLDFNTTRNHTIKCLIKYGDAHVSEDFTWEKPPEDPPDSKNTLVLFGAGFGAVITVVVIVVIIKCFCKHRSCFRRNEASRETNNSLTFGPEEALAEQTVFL

“soluble CD80-Fc: extracellular two domains of human CD80 fused to the Fc domain of IgG1 (Fc fusion)” yielded an increase of IFNγ production by PHA-activated PBMC, no tumor cells (ELISA) in experiment [1] of 14 to 28%.

B1: recombinant mouse PD1-Fc fusion protein (Fc fusion, UniProt Q02242 25-167, looked up)
chain: LEVPNGPWRSLTFYPAWLTVSEGANATFTCSLSNWSEDLMLNWNRLSPSNQTEKQAAFCNGLSQPVQDARFQIIQLPNRHDFHMNILDTRRNDSGIYLCGAISLHPKAKIEESPGAELVVTERILETSTRYPSPSPKPEGRFQ
notes: Recombinant reagent; also called sPD1-Fc (mouse); soluble form of PD1; not shown: Fc part
In the case of B1, the binding result in experiment [2] is “no binding”.
